B1: RA191 (nucleic acid)
DNA: GCGCGTCCTGGATTCGCGGAACGAGAATACCAGCATCGTCTTGATGCCCTTGGAAGTCTCGACGCGTACATCCAGCTGACGAGTCCCAAATAGGACGAAACGCGC
modifications: expressed or natural sequence
B2: RA181 (nucleic acid)
DNA: GCGCGCCGGAATACCAGCATCGTCTTGATGCCCTTGGAAGTCCGGTCCTGGATTCGCGGAAACGCGTACATCCAGCTGACGAGTCCCAAATAGGACGAAACGCGC
modifications: expressed or natural sequence
B3: RA194 (nucleic acid)
DNA: GCGCGTCCTGGATTCGCGGAAACGCGTACATCCAGCTGACGAGAATACCAGCATCGTCTTGATGCCCTTGGAAGTCTCGAGTCCCAAATAGGACGAAACGCGC
modifications: expressed or natural sequence
B4: RA180 (nucleic acid)
DNA: GCGCGTCCTGGATTCGCGGAAACGCGTACATCCAGCTGGAGAATACCAGCATCGTCTTGATGCCCTTGGAAGTCTCACGAGTCCCAAATAGGACGAAACGCGC
modifications: expressed or natural sequence
B5: RA184 (nucleic acid)
DNA: GAGAATACCAGCATCGTCTTGATGCCCTTGGAAGTCTCGCGTCCTGGATTCGCGGAAACGCGTACATCCAGCTGACGAGTCCCAAATAGGACGAAACGCGC
modifications: expressed or natural sequence
B6: RA192 (nucleic acid)
DNA: GCGCGTCCTGGATTCGCGGAAACGCGTACATCCAGCTGACGAGTCCCAAATGGAATACCAGCATCGTCTTGATGCCCTTGGAAGTCCAGGACGAAACGCGC
modifications: expressed or natural sequence
B7: RA179 (nucleic acid)
DNA: GCGCGTCCTGGATTCGCGGAAACGCGTACATCCAGCTCGGAATACCAGCATCGTCTTGATGCCCTTGGAAGTCCGGACGAGTCCCAAATAGGACGAAACGCGC
modifications: expressed or natural sequence
B8: RA183 (nucleic acid)
DNA: GCGCGTCCTGGATTCGCGGAAACGCGTACATCCAGCTGAGAATACCAGCATCGTCTTGATGCCCTTGGAAGTCTACGAGTCCCAAATAGGACGAAACGCGC
modifications: expressed or natural sequence
B9: RA199 (nucleic acid)
DNA: GCGCGTCCTGGATTCGCGGAAACAGTGATACCAGCATCGTCTTGATGCCCTTGGCAGCACTGCGTACATCCAGCTGACGAGTCCCAAATAGGACGAAACGCGC
modifications: expressed or natural sequence
B10: RA196 (nucleic acid)
DNA: GCGCGTCCTGGATTCGCGGAAACGCGTACATCCAGCTGACGAGTCCCAAATGAGAATACCAGCATCGTCTTGATGCCCTTGGAAGTCTCAGGACGAAACGCGC
modifications: expressed or natural sequence
B11: RA201 (nucleic acid)
DNA: GCGCGTCCTGGATTCGCGGAAACGCGAGAATACCAGCATCGTCTTGATGCCCTTGGAAGTCTCGCGTACATCCAGCTGACGAGTCCCAAATAGGACGAAACGCGC
modifications: expressed or natural sequence
B12: RA178 (nucleic acid)
DNA: GCGCGTCCTGGATTCGCGGAAACGCGTACATCCGGAATACCAGCATCGTCTTGATGCCCTTGGAAGTCCAGCTGACGAGTCCCAAATAGGACGAAACGCGC
modifications: expressed or natural sequence
B13: RA200 (nucleic acid)
DNA: GCGCGTCCTGGATTCGCGGAAACGCGTACATCCGAGAATACCAGCATCGTCTTGATGCCCTTGGAAGTCTCGCAGCTGACGAGTCCCAAATAGGACGAAACGCGC
modifications: expressed or natural sequence
B14: RA019 (nucleic acid)
DNA: GCGCGTCCTGGATTCGCGGAAACGCGTACATCCAGCTGACGGGAATACCAGCATCGTCTTGATGCCCTTGGAAGTCCAGTCCCAAATAGGACAAAACGCGC
modifications: expressed or natural sequence
B15: RA189 (nucleic acid)
DNA: GCGCGTCCTGGATTCGGAATACCAGCATCGTCTTGATGCCCTTGGAAGTCCGCGGAAACGCGTACATCCAGCTGACGAGTCCCAAATAGGACGAAACGCGC
modifications: expressed or natural sequence
B16: RA187 (nucleic acid)
DNA: GCGCGTCCTGGATTCGCGGAAACGCGTACATCCAGCTGACGAGTCCCAAATAGGACGAAACGCGCGAGAATACCAGCATCGTCTTGATGCCCTTGGAAGTCTC
modifications: expressed or natural sequence
B17: RA193 (nucleic acid)
DNA: CCGGAATACCAGCATCGTCTTGATGCCCTTGGAAGTCCGGGCGCGTCCTGGATTCGCGGAAACGCGTACATCCAGCTGACGAGTCCCAAATAGGACGAAACGCGC
modifications: expressed or natural sequence
B18: RA177 (nucleic acid)
DNA: GCGCGTCCTGGATTCGCGGAAACGCGTACATCCAGCTGACGAGTCCCAAATAGGACGAAACGCAGTGATACCAGCATCGTCTTGATGCCCTTGGCAGCACTGC
modifications: expressed or natural sequence
B19: RA197 (nucleic acid)
DNA: GCGCGTCCTGGATTCGCGGAAACGCGTACATCCAGCTGACGAGTCCCAAATAGGACAAAACGCGC
modifications: expressed or natural sequence
B20: RA176 (nucleic acid)
DNA: GCGCGTCCTGGAATACCAGCATCGTCTTGATGCCCTTGGAAGTCCGGATTCGCGGAAACGCGTACATCCAGCTGACGAGTCCCAAATAGGACGAAACGCGC
modifications: expressed or natural sequence
B21: RA186 (nucleic acid)
DNA: GCGCGTCCTGGATTCGCGCGAGAATACCAGCATCGTCTTGATGCCCTTGGAAGTCTCGGAAACGCGTACATCCAGCTGACGAGTCCCAAATAGGACGAAACGCGC
modifications: expressed or natural sequence
B22: RA188 (nucleic acid)
DNA: GCGCGTCCTGGATTCGCGGAAACGCGTACATCCAGCTGACGAGTCCCAAATAGGACGAAGAGAATACCAGCATCGTCTTGATGCCCTTGGAAGTCTCACGCGC
modifications: expressed or natural sequence
B23: RA195 (nucleic acid)
DNA: GCGCGTCGAGAATACCAGCATCGTCTTGATGCCCTTGGAAGTCTCGCCTGGATTCGCGGAAACGCGTACATCCAGCTGACGAGTCCCAAATAGGACGAAACGCGC
modifications: expressed or natural sequence
B24: RA190 (nucleic acid)
DNA: GCGCGTCCTGGATTCGCGAGTGATACCAGCATCGTCTTGATGCCCTTGGCAGCACTGAAACGCGTACATCCAGCTGACGAGTCCCAAATAGGACGAAACGCGC
modifications: expressed or natural sequence
B25: RA185 (nucleic acid)
DNA: GCGCGTCCTGGATTCGCGGAAACGCGTACATCCAGCTGACGAGTCCCAAATACGGAATACCAGCATCGTCTTGATGCCCTTGGAAGTCCGGGACGAAACGCGC
modifications: expressed or natural sequence
B26: RA182 (nucleic acid)
DNA: GCGCGTCCTGGATTCGCGGAAACGCGGAGAATACCAGCATCGTCTTGATGCCCTTGGAAGTCTCTACATCCAGCTGACGAGTCCCAAATAGGACGAAACGCGC
modifications: expressed or natural sequence
B27: RA198 (nucleic acid)
DNA: GCGCGTCCTGAGAATACCAGCATCGTCTTGATGCCCTTGGAAGTCTGATTCGCGGAAACGCGTACATCCAGCTGACGAGTCCCAAATAGGACGAAACGCGC
modifications: expressed or natural sequence
B28: RA017 (nucleic acid)
DNA: GCGCGTCCTGGCGGAATACCAGCATCGTCTTGATGCCCTTGGAAGTCCGATTCGCGGAAACGCGTACATCCAGCTGACGAGTCCCAAATAGGACGAAACGCGC
modifications: expressed or natural sequence
B29: RA018 (nucleic acid)
DNA: GCGCGTCCTGGATTCGCGGAAACGCGTACATCCAGCTGACGAGTCCCAAAGTGATACCAGCATCGTCTTGATGCCCTTGGCAGCACTATAGGACGAAACGCGC
modifications: expressed or natural sequence

System: Renilla luciferase RNA
Assay: Barcoded aptazyme variant library screen: un-cleaved Renilla luciferase RNA by barcode read counts, HEK293-T cells
Format: cell-based
Settings: un-cleaved Renilla luciferase RNA, HEK293-T cells cultured with 1 mM theophylline (ON) over without theophylline (OFF); barcode read counts, triplicate
How it was run: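 Barcode sequencing of cDNA versus DNA, normalized per aptazyme, gave the un-cleaved Renilla luciferase RNA fraction and fold-change with versus without theophylline (triplicates). Library: T3H48 ribozyme with one of seven theophylline aptamer variants inserted at each position, placed in the Renilla 3′ UTR of a dual-luciferase vector.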

Row | Molecule | Fold change in RNA expression between the ON state and the OFF state [fold]
1 | B1 | 1.2
2 | B2 | 1.3
3 | B3 | 1.2
4 | B4 | 1.3
5 | B5 | 1.3
6 | B6 | 1.2
7 | B7 | 1.3
8 | B8 | 1.3
9 | B9 | 1.2
10 | B10 | 1.2
11 | B11 | 1.2
12 | B12 | 1.3
13 | B13 | 1.2
14 | B14 | 2.7
15 | B15 | 1.2
16 | B16 | 1.3
17 | B17 | 1.2
18 | B18 | 1.3
19 | B19 | 1.2
20 | B20 | 1.3
21 | B21 | 1.3
22 | B22 | 1.2
23 | B23 | 1.2
24 | B24 | 1.2
25 | B25 | 1.3
26 | B26 | 1.3
27 | B27 | 1.2
28 | B28 | 2.8
29 | B29 | 2.8

Source: patent US20260167959A1, “APTAZYME-BASED REGULATABLE GENE EXPRESSION SYSTEMS” (REJUVENATE BIO INC, priority 2022, published 2026)
